Data reported in patent US20250092135A1 (NANJING LEADS BIOLABS, published 2025).

T1: rhesus monkey MUC16 protein (ECT_TM RhMuc16) on 293T cells (rhesus monkey)
T1 chain: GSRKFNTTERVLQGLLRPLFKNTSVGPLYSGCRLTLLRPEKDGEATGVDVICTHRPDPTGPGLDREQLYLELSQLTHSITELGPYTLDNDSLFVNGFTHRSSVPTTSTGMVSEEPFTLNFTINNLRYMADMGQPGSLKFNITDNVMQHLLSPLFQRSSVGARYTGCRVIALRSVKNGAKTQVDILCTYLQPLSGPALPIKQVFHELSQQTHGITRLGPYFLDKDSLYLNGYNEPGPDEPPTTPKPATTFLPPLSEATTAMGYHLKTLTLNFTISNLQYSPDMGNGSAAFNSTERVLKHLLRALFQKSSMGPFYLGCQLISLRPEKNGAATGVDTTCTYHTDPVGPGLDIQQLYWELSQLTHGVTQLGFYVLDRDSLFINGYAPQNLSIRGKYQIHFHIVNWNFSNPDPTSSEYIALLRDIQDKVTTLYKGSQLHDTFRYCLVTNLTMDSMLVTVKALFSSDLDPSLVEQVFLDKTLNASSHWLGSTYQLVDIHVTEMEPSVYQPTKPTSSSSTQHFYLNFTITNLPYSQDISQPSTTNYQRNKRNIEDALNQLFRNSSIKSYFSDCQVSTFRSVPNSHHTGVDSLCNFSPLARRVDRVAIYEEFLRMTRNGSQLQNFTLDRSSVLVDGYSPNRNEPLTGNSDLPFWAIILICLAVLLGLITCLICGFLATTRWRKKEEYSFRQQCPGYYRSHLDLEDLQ

T2: Human MUC16-His (human)
T2 construct: The entry includes the C-terminal 6xHis tag; also called membrane-proximal end of the extracellular region of the human MUC16 protein; Human MUC16 protein
T2 chain: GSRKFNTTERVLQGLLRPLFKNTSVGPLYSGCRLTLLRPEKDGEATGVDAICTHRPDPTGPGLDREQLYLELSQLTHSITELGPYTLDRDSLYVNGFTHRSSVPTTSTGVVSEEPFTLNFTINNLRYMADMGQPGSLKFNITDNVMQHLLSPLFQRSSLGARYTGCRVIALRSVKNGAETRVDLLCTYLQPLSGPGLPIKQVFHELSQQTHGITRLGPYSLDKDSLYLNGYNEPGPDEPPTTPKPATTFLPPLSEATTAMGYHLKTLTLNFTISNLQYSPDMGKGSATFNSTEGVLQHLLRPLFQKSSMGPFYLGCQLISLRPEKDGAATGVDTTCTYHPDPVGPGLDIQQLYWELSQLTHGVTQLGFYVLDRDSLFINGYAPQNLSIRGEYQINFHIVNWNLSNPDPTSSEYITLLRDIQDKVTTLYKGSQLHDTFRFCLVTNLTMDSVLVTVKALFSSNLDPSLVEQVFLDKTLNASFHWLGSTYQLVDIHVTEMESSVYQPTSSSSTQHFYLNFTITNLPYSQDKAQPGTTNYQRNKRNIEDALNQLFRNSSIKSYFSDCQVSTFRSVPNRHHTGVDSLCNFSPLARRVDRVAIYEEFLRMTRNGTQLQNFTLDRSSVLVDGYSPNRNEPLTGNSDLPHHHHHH

T3: Rhesus monkey MUC16-His (rhesus monkey)
T3 construct: The entry includes the C-terminal 6xHis tag; also called membrane-proximal end of the extracellular region of the rhesus monkey MUC16 protein
T3 chain: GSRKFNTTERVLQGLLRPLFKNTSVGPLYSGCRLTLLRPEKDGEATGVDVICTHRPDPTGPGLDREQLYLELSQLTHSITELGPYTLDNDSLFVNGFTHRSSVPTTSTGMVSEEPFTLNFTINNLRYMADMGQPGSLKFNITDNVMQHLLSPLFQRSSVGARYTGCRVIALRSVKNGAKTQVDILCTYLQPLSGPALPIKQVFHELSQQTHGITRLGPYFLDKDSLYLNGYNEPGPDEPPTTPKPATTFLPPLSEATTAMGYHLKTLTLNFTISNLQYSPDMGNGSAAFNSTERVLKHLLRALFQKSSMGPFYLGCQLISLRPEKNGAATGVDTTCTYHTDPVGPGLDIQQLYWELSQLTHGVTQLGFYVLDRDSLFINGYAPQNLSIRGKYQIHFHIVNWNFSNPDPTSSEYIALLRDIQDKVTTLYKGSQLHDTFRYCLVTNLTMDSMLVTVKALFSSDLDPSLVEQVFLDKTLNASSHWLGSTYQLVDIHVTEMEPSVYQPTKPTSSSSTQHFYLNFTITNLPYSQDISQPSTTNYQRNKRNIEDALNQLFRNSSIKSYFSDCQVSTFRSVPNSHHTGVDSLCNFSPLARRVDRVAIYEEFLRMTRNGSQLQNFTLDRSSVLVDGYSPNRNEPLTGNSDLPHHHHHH

B1: anti-MUC16 antibody 776.1(C33S) (antibody, human IgG1, kappa, L234A L235A, V domains shown)
VH: EVQLQQSGPELVKPGASVKISCKASGYTFTDYNIHWVKQSHGKILEWIGYIYPYNGVSDYNQNFKSKATLIVDNSSNTAYMELRSLTSEDSAVYYCARWDFGSGYYFDYWGQGTTLTVSS
VL: QIVLSQSPAILFASPGETVTMTCRASSSVIYMSWNQQKPGSSPKPWIYGTSTLASGVPTRFSGSGSGTSYSLTISRVEAEDAATYYCQQWSSNPFTFGSGTKLEIKR
B2: humanized anti-MUC16 antibody Hu-L4H7 (antibody, human IgG1, kappa, L234A L235A, V domains shown)
VH: QVQLVQSGAEVKKPGASVKVSCKASGYTFTDYNIHWVRQAPGQGLEWMGYIYPYNGVSDYNQNFKSRVTMTTDTSTSTAYMELRSLRSDDTAVYYCARWDFGSGYYFDYWGQGTLVTVSS
VL: EIVLTQSPATLSLSPGERATLSCRASSSVIYMSWYQQKPGQAPRLLIYGTSTLASGIPARFSGSGSGTDFTLTISSLEPEDFAVYYCQQWSSNPFTFGQGTKLEIKR
notes: human IgG1 with L234A, L235A, D265A, P329A and kappa; Biotinylated in the CA125 ELISA; also called humanized MUC-16 antibody

Legend:
[1] = molecular target: T1, rhesus monkey MUC16 protein (ECT_TM …); assay: flow cytometry, 293T/rhesus MUC16 cells, PE anti-human IgG Fc secondary, MFI; EC50 table under the plot, unit from the axis Conc.(nM)
Experimental: The serially diluted anti-human MUC16 antibodies (at an initial concentration of 200 nM, 4-fold dilution, 8 points in total) obtained in the present application were added to the cells, and the cells were incubated at 4° C. for 30 min. The cells were washed twice with PBS, and then fluorescent secondary antibody R-PE-conjugated AffiniPure Goat Anti-Human IgG, Fcγ Fragment Specific (Jackson ImmunoResearch, Cat #109-116-098) was added. The cells were incubated at 4° C. for 30 min. The cells were washed twice with PBS and then resuspended, and finally, fluorescence signals were detected using a BD Accuri C5 (BD Bioscience) flow cytometer.

Human MUC16-His = molecular target: T2, Human MUC16-His; assay: BLI (ForteBio Octet RED96), antibody on AHC sensor, 1:1 model
Rhesus monkey MUC16-His = molecular target: T3, Rhesus monkey MUC16-His; assay: as above

Binder	EC50 [1] [nM]	Kd (Human MUC16-His) [nM]	koff (Human MUC16-His) [s⁻¹]	kon (Human MUC16-His) [M⁻¹ s⁻¹]	Kd (Rhesus monkey MUC16-His) [nM]	koff (Rhesus monkey MUC16-His) [s⁻¹]	kon (Rhesus monkey MUC16-His) [M⁻¹ s⁻¹]
B1	5.01	–	–	–	–	–	–
B2	–	2.9	0.000911	314000	1.04	0.000263	254000
